Test results reported in the DeepSol protein solubility set.

test: soluble on expression in E. coli; label from the status in PepcDB or PDB records

Sequence | soluble on expression in E. coli
MEKHEEENGLCKAESVDGSLDVWSCQNSDSSSADHLVVMVHGILGSTDDWKFGAEQFVKKMPDKVFVHCSEKNVSALTLDGVDVMGERLAAEVLDIIQRKPNICKISFVAHSLGGLAARYAIGKLYKPANQEDVKDSVADSSQETPKGTICGLEAMNFITVATPHLGSMGNKQVPFLFGFSSIEKVAGLIIHWIFKRTGRHLFLKDEEEGKPPLLRRMVEDTDDCHFISALRAFKRRVAYSNVGHDHVVGWKTASIRRDSELPKWEDSLNEKYPHIVYEELCKACDMEDIPEGENHSDDIEEEMIKGLSSVSWEKVDVSFHSSRQRFAAHSVIQVKNEDMHIEGADVIEHIIDHFHA | soluble
MEKIMPEEEYSEFKELILQKELHVVYALSHVCGQDRTLLASILLRIFLHEKLESLLLCTLNDREISMEDEATTLFRATTLASTLMEQYMKATATQFVHHALKDSILKIMESKQSCELSPSKLEKNEDVNTNLTHLLNILSELVEKIFMASEILPPTLRYIYGCLQKSVQHKWPTNTTMRTRVVSGFVFLRLICPAILNPRMFNIISDSPSPIAARTLILVAKSVQNLANLVEFGAKEPYMEGVNPFIKSNKHRMIMFLDELGNVPELPDTTEHSRTDLSRDLAALHEICVAHSDELRTLSNERGAQQHVLKKLLAITELLQQKQNQYTKTNDVR | soluble
MEKNFKVAALYCFADLKHYRQLQKPLLDLCQAKDIKGTLLLAQEGINGTVAGSCAAIETLVDFITAEPAFQMPEIKYSWASKMPFHRMKVRLKKEIVTMGVDGVNPLKAVGTYVDPKDWNALIQDEETLLIDTRNDYEYAIGSFQGAVDPRIKTFREFPAWVLKHEADLKKKKKIAMFCTGGIRCEKSTAYVRELGYEQVYHLKGGILKYLETIPKEDSLWWGECFVFDERVSVKHGLEECGRELCRACRSPLNTESKLSPHYEEGVSCDACYNTRSEDDRERFRERHRQFQLSKLRAMHSHQELEHHHHHH | not soluble
MEKPASKSKRKPKETSDDVDADVLPEKGLHNSDGFLFYHASFRPLTSAQHRRAEEHGIDLKTKKVFTVEESIQVFENWRKFATEHNMKLAKAPEYISPKKTDRHIFKHQEEHHFWPKLCDGLPHRPACTIKMRAISMMTSSFMENLEWSRLAEEIKAKLHTYETNDDLTMQKAQKLLEKGYAASHVAEILNVSNGKMSSMASKLRTLEARNDPTMIHAFYESTVYFGLKLKKLRRAITTNDDYRIESVRRKVRLEEIGLQLHISEQKCKDLLKIVIETIRTKYTESLEEAGLDEDEAWSKALALVDSRPPIEESQLYKALEIICKHIEKAETTGSLLSHEQLPSIIKSHGITGFQSDRSEYAYLHFRLCGLLMHQLTTGFFEHLRREFPLQIKLHCLLWSYKRLDVWEKICVEEGKTRYETVLKSEIANPLASKMTLKFLKNEKVVEWISDPRPPKNRQKAATRRLETAIESFILYSYNKFGETFKFPAKFRRILHTSKTVRSVLEVVSDPENAEFLSIKEARKTVEDASGCKIAVKIKNKRIVPKLKDESDASEDGESENSDSEDLIKHSHSIERSAFEERRDEIEKVLQRADPSKIRAKFRKKDEIPEEILLSKELRQQKRAMTRAAEKLERLEAKICSAEFIDDGSGCSYSQVDEDLLEREKKRKRKKSEASEVVIGTDQLDTAEDLQGSKKKKHAEVLEGKDHEDTGCSDSQQVMDPEVCEDLVEKEKKKKRKRKISEASEVVIGMNQMERAEDLQRSKKKKHAEILEGNDHEDSENLKKRSKKKKKRKDHDAEFDAELDLDSENLDEEPKKRKKHC | soluble
MEKPIIRGYIRENGSVGVRNYVAVIPVDDLSNSASIGVSKLIRGTVAIPHPYGRLQFGKDLDLLFHVLSGTGANPNVAAAIVIGIEENWANKVADKIAETGKPVEVFPVEGNGDLKVIEKASRKAKEFVQEASEKQRTEVDLSSLVLSIKCGESDTTSGLASNPATGYAVDKLIDYGSTVMFGETSELTGAEDIVASRIQDPVLRDKFMRIYNEYVAFIESQGVDLLGSQPTEGNIKGGLSTIEEKALGNIQKLGTKPITCVLDYLDPLGKGSSRLCFVNTSSAAAEAVTLFAAKGSVLHLFTTGQGNVVGHPIIPVVKISANPKTIATMSEHIDVDVSDLLQLKVSLKEAGERIFNYTIRVANGRLTSAEILQHEEFSPIKLYISA | not soluble
